The text below walks through data of patent EP2468863A1.

In the test the target is CEACAM1 expressed on transfected cells (CHO-CEACAM1, HeLa CC1, HeLa-CC1H) (human) (UniProt P13688). As to the kind of experiment: cell-based or functional assay.
UniProt P13688, sequence (P13688 35-526): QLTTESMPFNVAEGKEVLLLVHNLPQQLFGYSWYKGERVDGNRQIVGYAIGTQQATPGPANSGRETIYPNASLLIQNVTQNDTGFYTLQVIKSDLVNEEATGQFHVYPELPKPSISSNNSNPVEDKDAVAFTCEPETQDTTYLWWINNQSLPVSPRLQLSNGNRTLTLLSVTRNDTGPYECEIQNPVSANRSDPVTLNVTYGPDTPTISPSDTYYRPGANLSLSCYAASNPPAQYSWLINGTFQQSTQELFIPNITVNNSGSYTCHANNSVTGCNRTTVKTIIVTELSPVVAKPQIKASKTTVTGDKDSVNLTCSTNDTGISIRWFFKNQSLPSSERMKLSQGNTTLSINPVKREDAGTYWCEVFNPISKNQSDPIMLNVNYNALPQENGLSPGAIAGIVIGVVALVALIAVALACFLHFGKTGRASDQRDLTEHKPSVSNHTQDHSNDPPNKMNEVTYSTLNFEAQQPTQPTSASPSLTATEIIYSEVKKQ

In the case of “recombinant UspA1 fragment 4-7 (peptide)”, the inhibition of binding of H. influenzae to CHO-CEACAM1 transfectants is 10 µg per ml and the inhibition of binding of M. catarrhalis strain MX1 to CHO-CEACAM1 transfectants was 1 µg/mL.
